Measured values published in article PMC7999107.

Columns and labels:
Conditions in all cases: reference: wild type mice; sites S89
14-3-3 epsilon (14-3-3ε) [1] = target: 14-3-3 epsilon (14-3-3ε) (UniProt P62259); assay: anti-p300 IP, 14-3-3ε immunoblot
β-catenin = β-catenin (UniProt Q02248); assay: anti-p300 IP, β-catenin immunoblot, nuclear extract
14-3-3 epsilon (14-3-3ε) [2] = target: 14-3-3 epsilon (14-3-3ε) (UniProt P62259); assay: anti-14-3-3ε IP, p300 immunoblot

Measured: binding against the reference

p300 (from UniProt B2RWS6) p300 S89A knock-in mice
weaker: 14-3-3 epsilon (14-3-3ε) [1] | β-catenin | 14-3-3 epsilon (14-3-3ε) [2]
